The text below walks through data of patent US12606817B2, “Methods of creating and screening DNA-encoded libraries” (X-Chem, Inc., priority 2009, dated 2026).

A short description of the data set: solubility of headpiece in organic solvent (DMF). Particulars: DMF/water reaction mixture. It counts as physicochemical. The procedure:
In order to prepare a “library of 1,” a model compound, 5-(4,6-dichlorotriazinyl-aminofluorescein) (DTAF; Anaspec) (FIG. 12), was coupled to the amino group of HP-1. DTAF structurally represents a trichlorotriazine scaffold with one amino compound coupled. To form a library, trichlorotriazine scaffolds can be derivatized with a diversity of building blocks at each of the three chlorine positions. DTAF also provides a fluorescent label to the model library. The reaction (10 μl) was set up as follows. To 5 μl of 400 μM HP-1 dissolved in water, 2 μl of 750 mM borate buffer, pH 9.5, and 1 μl of DMF were added. DTAF was dissolved in DMF to 50 mM and 2 μl was added to the reaction. Final concentrations of the HP-1 and DTAF were 200 μM and 10 mM, respectively, thus generating a 50-fold excess of DTAF. The final DMF concentration was 30%. […] The reaction was allowed to proceed at 4° C. for 16-20 hours. The reaction mixture was then diluted with water to 30-50 μl and desalted on a Zeba spin column (Pierce). No further purification was completed at this point.

Regarding “HP-1: hairpin oligonucleotide headpiece (SEQ ID NO: 51) with amino-PEG2000 linker on C5-amino-modified dT (DNA TCCTGGCTGAGGCGAGAGTTTTTCTCTCGCCTCAGCCAGGACC; amino-PEG2000 linker on C5-amino-modified dT; modified_base (21)..(21) dT-C6-NH)”, the “stayed soluble in up to % DMF” value is listed as “up to 90 % DMF”.
